Reference: publication PMC9982067

Biological target: Lys38 (UniProt position 38, …)
Experiment: kinetics
Conditions: 19°C; 50 mM/50 mM TRIS/HEPES (pH 8.3-6.3), TRIS/MES (pH 6.6, 5.8), TRIS/citric acid (pH 5.3-2.8); Transporter in the native yeast plasma membrane, turning over with 1 mM L-lactate. The authors link the 7.43 inflection to Lys 38 in the substrate-unbound state.

B1: Monocarboxylate transporter 1 (MCT1) (Homo sapiens) (protein)
chain: MPPAVGGPVGYTPPDGGWGWAVVIGAFISIGFSYAFPKSITVFFKEIEGIFHATTSEVSWISSIMLAVMYGGGPISSILVNKYGSRIVMIVGGCLSGCGLIAASFCNTVQQLYVCIGVIGGLGLAFNLNPALTMIGKYFYKRRPLANGLAMAGSPVFLCTLAPLNQVFFGIFGWRGSFLILGGLLLNCCVAGALMRPIGPKPTKAGKDKSKASLEKAGKSGVKKDLHDANTDLIGRHPKQEKRSVFQTINQFLDLTLFTHRGFLLYLSGNVIMFFGLFAPLVFLSSYGKSQHYSSEKSAFLLSILAFVDMVARPSMGLVANTKPIRPRIQYFFAASVVANGVCHMLAPLSTTYVGFCVYAGFFGFAFGWLSSVLFETLMDLVGPQRFSSAVGLVTIVECCPVLLGPPLLGRLNDMYGDYKYTYWACGVVLIISGIYLFIGMGINYRLLAKEQKANEQKKESKEEETSIDVAGKPNEVTKAAESPDQKDTDGGPKEEESPV
Q: With B1 as the protein, how does the pKa read?
A: Its pKa is 7.43.
